# Reference: patent US20180155451A1 (published 2018)
# T1: FcγRIIb extracellular domain with C-terminal His tag (human, UniProt P31994 43-217)
# T1 construct: extracellular domain; also called FcgRIIb; 2b; not shown: His tag at the C terminus
# T1 sequence (looked up): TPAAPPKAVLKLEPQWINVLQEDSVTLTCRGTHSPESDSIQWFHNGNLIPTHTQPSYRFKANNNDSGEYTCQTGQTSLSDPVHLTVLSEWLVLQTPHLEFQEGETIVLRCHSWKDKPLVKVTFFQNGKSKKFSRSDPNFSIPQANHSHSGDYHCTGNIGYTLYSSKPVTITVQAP
# B1: GpH7-A5/GpH7-B3 variant S298_02A/GpL16-k0 (antibody, human IgG1, kappa)
# heavy 1: not shown
# heavy 2: not shown
# light: DIVMTQSPLSLPVTPGEPASISCQASESLVHSNRNTYLHWYLQKPGQSPQLLIYKVSNRFSGVPDRFSGSGSGTDFTLKISRVEAEDVGVYYCSQNTHVPPTFGQGTKVEIERTVAAPSVFIFPPSDEQLKSGTASVVCLLNNFYPREAKVQWKVDNALQSGNSQESVTEQDSKDSTYSLSSTLTLSKADYEKHKVYACEVTHQGLSSPVTKSFNRGEC
# notes: position is EU numbering; also called He Ab
# B2: GpH7-A5/GpH7-B3 variant (Y300_03V)/GpL16-k0 (antibody, human IgG1, kappa)
# heavy 1: not shown
# heavy 2: not shown
# light: B1 light
# notes: Heterodimerized; only the B3 chain altered; also called He Ab Y300_03V
# B3: GpH7-A5/GpH7-B3 variant (Y300_13S)/GpL16-k0 (antibody, human IgG1, kappa)
# heavy 1: not shown
# heavy 2: not shown
# light: B1 light
# notes: Heterodimerized; only the B3 chain altered; also called He Ab Y300_13S
# B4: GpH7-A5/GpH7-B3 variant A330_03V/GpL16-k0 (antibody, human IgG1, kappa)
# heavy 1: not shown
# heavy 2: not shown
# light: B1 light
# notes: as for B1
# B5: GpH7-A5/GpH7-B3 variant (Y300_11K)/GpL16-k0 (antibody, human IgG1, kappa)
# heavy 1: not shown
# heavy 2: not shown
# light: B1 light
# notes: Heterodimerized; only the B3 chain altered; also called He Ab Y300_11K
# B6: GpH7-A5/GpH7-B3 variant A330_06M/GpL16-k0 (antibody, human IgG1, kappa)
# heavy 1: not shown
# heavy 2: not shown
# light: B1 light
# notes: as for B1
# B7: GpH7-A5/GpH7-B3 variant (Y296_20W)/GpL16-k0 (antibody, human IgG1, kappa)
# heavy 1: not shown
# heavy 2: not shown
# light: B1 light
# notes: Heterodimerized; only the B3 chain altered; also called He Ab Y296_20W
# B8: GpH7-A5/GpH7-B3 variant (Y300_02A)/GpL16-k0 (antibody, human IgG1, kappa)
# heavy 1: not shown
# heavy 2: not shown
# light: B1 light
# notes: Heterodimerized; only the B3 chain altered; also called He Ab Y300_02A
# B9: GpH7-A5/GpH7-B3 variant I332_10E/GpL16-k0 (antibody, human IgG1, kappa)
# heavy 1: not shown
# heavy 2: not shown
# light: B1 light
# notes: as for B1
# B10: GpH7-A5/GpH7-B3 variant K334_01G/GpL16-k0 (antibody, human IgG1, kappa)
# heavy 1: not shown
# heavy 2: not shown
# light: B1 light
# notes: as for B1
# B11: GpH7-A5/GpH7-B3 variant (Y296_06M)/GpL16-k0 (antibody, human IgG1, kappa)
# heavy 1: not shown
# heavy 2: not shown
# light: B1 light
# notes: Heterodimerized; only the B3 chain altered; also called He Ab Y296_06M
# B12: GpH7-A5/GpH7-B3 variant A330_04F/GpL16-k0 (antibody, human IgG1, kappa)
# heavy 1: not shown
# heavy 2: not shown
# light: B1 light
# notes: as for B1
# B13: GpH7-A5/GpH7-B3 variant E333_16H/GpL16-k0 (antibody, human IgG1, kappa)
# heavy 1: not shown
# heavy 2: not shown
# light: B1 light
# notes: as for B1
# B14: GpH7-A5/GpH7-B3 variant A330_08L/GpL16-k0 (antibody, human IgG1, kappa)
# heavy 1: not shown
# heavy 2: not shown
# light: B1 light
# notes: as for B1
# B15: GpH7-A5/GpH7-B3 variant (Y300_06M)/GpL16-k0 (antibody, human IgG1, kappa)
# heavy 1: not shown
# heavy 2: not shown
# light: B1 light
# notes: Heterodimerized; only the B3 chain altered; also called He Ab Y300_06M
# B16: GpH7-A5/GpH7-B3 variant K334_02A/GpL16-k0 (antibody, human IgG1, kappa)
# heavy 1: not shown
# heavy 2: not shown
# light: B1 light
# notes: as for B1
# B17: GpH7-A5/GpH7-B3 variant (Y300_19Q)/GpL16-k0 (antibody, human IgG1, kappa)
# heavy 1: not shown
# heavy 2: not shown
# light: B1 light
# notes: Heterodimerized; only the B3 chain altered; also called He Ab Y300_19Q
# B18: GpH7-A5/GpH7-B3 variant (Y296_16H)/GpL16-k0 (antibody, human IgG1, kappa)
# heavy 1: not shown
# heavy 2: not shown
# light: B1 light
# notes: Heterodimerized; only the B3 chain altered; also called He Ab Y296_16H
# B19: GpH7-A5/GpH7-B3 variant A330_15Y/GpL16-k0 (antibody, human IgG1, kappa)
# heavy 1: not shown
# heavy 2: not shown
# light: B1 light
# notes: as for B1
# B20: GpH7-A5/GpH7-B3 variant (Y296_12R)/GpL16-k0 (antibody, human IgG1, kappa)
# heavy 1: not shown
# heavy 2: not shown
# light: B1 light
# notes: Heterodimerized; only the B3 chain altered; also called He Ab Y296_12R
# B21: GpH7-A5/GpH7-B3 variant I332_09D/GpL16-k0 (antibody, human IgG1, kappa)
# heavy 1: not shown
# heavy 2: not shown
# light: B1 light
# notes: as for B1
# B22: GpH7-A5/GpH7-B3 variant (Y300_20W)/GpL16-k0 (antibody, human IgG1, kappa)
# heavy 1: not shown
# heavy 2: not shown
# light: B1 light
# notes: Heterodimerized; only the B3 chain altered; also called He Ab Y300_20W
# B23: GpH7-A5/GpH7-B3 variant (Y300_08L)/GpL16-k0 (antibody, human IgG1, kappa)
# heavy 1: not shown
# heavy 2: not shown
# light: B1 light
# notes: Heterodimerized; only the B3 chain altered; also called He Ab Y300_08L
# B24: GpH7-A5/GpH7-B3 variant E333_01G/GpL16-k0 (antibody, human IgG1, kappa)
# heavy 1: not shown
# heavy 2: not shown
# light: B1 light
# notes: as for B1
# B25: GpH7-A5/GpH7-B3 variant A330_10E/GpL16-k0 (antibody, human IgG1, kappa)
# heavy 1: not shown
# heavy 2: not shown
# light: B1 light
# notes: as for B1
# B26: GpH7-A5/GpH7-B3 variant (Y296_11K)/GpL16-k0 (antibody, human IgG1, kappa)
# heavy 1: not shown
# heavy 2: not shown
# light: B1 light
# notes: Heterodimerized; only the B3 chain altered; also called He Ab Y296_11K
# B27: GpH7-A5/GpH7-B3 variant A330_07I/GpL16-k0 (antibody, human IgG1, kappa)
# heavy 1: not shown
# heavy 2: not shown
# light: B1 light
# notes: as for B1
# B28: GpH7-A5/GpH7-B3 variant A327_11K/GpL16-k0 (antibody, human IgG1, kappa)
# heavy 1: not shown
# heavy 2: not shown
# light: B1 light
# notes: as for B1
# B29: GpH7-A5/GpH7-B3 variant I332_01G/GpL16-k0 (antibody, human IgG1, kappa)
# heavy 1: not shown
# heavy 2: not shown
# light: B1 light
# notes: as for B1
# B30: GpH7-A5/GpH7-B3 variant E333_02A/GpL16-k0 (antibody, human IgG1, kappa)
# heavy 1: not shown
# heavy 2: not shown
# light: B1 light
# notes: as for B1
# B31: GpH7-A5/GpH7-B3 variant A330_20W/GpL16-k0 (antibody, human IgG1, kappa)
# heavy 1: not shown
# heavy 2: not shown
# light: B1 light
# notes: as for B1
# B32: GpH7-A5/GpH7-B3 variant E333_13S/GpL16-k0 (antibody, human IgG1, kappa)
# heavy 1: not shown
# heavy 2: not shown
# light: B1 light
# notes: as for B1
# B33: GpH7-A5/GpH7-B3 variant (Y300_14T)/GpL16-k0 (antibody, human IgG1, kappa)
# heavy 1: not shown
# heavy 2: not shown
# light: B1 light
# notes: Heterodimerized; only the B3 chain altered; also called He Ab Y300_14T
# B34: GpH7-A5/GpH7-B3 variant I332_12R/GpL16-k0 (antibody, human IgG1, kappa)
# heavy 1: not shown
# heavy 2: not shown
# light: B1 light
# notes: as for B1
# What was measured:
# [1] = biological target: T1, FcγRIIb extracellular domain with …; experiment: SPR (Biacore), antibody captured, FcγR as analyte; He Ab binding / GpH7-A5/GpH7-B3/GpL16-k0 binding x 100
# Procedure: (§1) The heterodimerized antibodies He Abs in which one of the H chains was introduced with an alteration were assayed for their binding activities to each activating FcγR and inhibitory FcγR according to the method described in Example 4. […] The activating FcγRs in FIGS. 26, 27, 28, and 29 are FcγRIa, FcγRIIa (R), FcγRIIa (H), and FcγRIIIa, respectively.
# (§2) Analysis of interaction between objective antibody and the FcγR was carried out using Biacore T100 (GE Healthcare). HBS-EP+ (GE Healthcare) was used as the running buffer, and the measurement temperature was set to 25° C. Chips produced by immobilizing the antigen peptide by the amine coupling method to a Series S Sencor Chip CM5 (GE Healthcare), or alternatively, chips produced by allowing preliminarily biotinylated antigen peptides to interact with and immobilize onto a Series S Sensor Chip SA (certified) (GE Healthcare) were used. Antibodies of interest were captured onto an antigen peptide-immobilized chip, and allowed to interact to each FcγR diluted with running buffer. To regenerate and repeatedly use the chip, the antibodies captured on the chip were washed off by reacting 10 mM glycine-HCl, pH 1.5.
# [2] = biological target: T2, FcγRIIIa extracellular domain with C-terminal His tag (human, UniProt P08637 17-208); experiment: as above
# T2 construct: extracellular domain; also called FcgRIIIa; 3a; not shown: His tag at the C terminus
# T2 sequence (P08637 17-208): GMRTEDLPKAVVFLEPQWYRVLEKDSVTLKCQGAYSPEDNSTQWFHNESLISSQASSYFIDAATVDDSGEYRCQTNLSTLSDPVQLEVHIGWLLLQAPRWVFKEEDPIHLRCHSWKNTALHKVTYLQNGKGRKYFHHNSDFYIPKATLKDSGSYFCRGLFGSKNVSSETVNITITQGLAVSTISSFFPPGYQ
# Procedure: as §1, §2
# [3] = biological target: T2, FcγRIIIa extracellular domain with …; experiment: SPR (Biacore); ratio of He/Con_3a (FcγRIIIa) to He/Con_2b (FcγRIIb)
# Procedure: as §1, §2
# [4] = biological target: T3, FcγRIa extracellular domain with C-terminal His tag (human, UniProt P12314 16-292); experiment: SPR (Biacore), captured antibody, FcγRIa analyte; relative to GpH7-A5/GpH7-B3/GpL16-k0 = 100
# T3 construct: extracellular domain; Expressed in FreeStyle293 cells; used as analyte in Biacore; also called FcgRI; 1a; not shown: His tag at the C terminus
# T3 sequence (P12314 16-292): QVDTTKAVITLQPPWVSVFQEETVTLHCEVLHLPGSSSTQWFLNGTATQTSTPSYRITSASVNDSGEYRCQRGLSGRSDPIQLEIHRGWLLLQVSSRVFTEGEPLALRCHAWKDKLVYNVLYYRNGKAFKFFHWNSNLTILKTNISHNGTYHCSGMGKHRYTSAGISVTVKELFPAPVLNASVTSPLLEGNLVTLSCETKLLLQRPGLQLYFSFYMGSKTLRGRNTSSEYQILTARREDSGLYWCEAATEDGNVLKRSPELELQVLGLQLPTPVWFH
Binder,He/Con_2b (IIb binding) [1],He/Con_3a (IIIa binding) [2],He_3a/2b (IIIa/IIb) [3],He/Con_1a [4]
B1,"73.4 relative, control = 100","160 relative, control = 100",2.18 ratio,–
B2,–,–,–,117 % of control
B3,–,–,–,111 % of control
B4,"52.4 relative, control = 100","101 relative, control = 100",1.93 ratio,–
B5,–,–,–,107 % of control
B6,"80.5 relative, control = 100","142 relative, control = 100",1.76 ratio,–
B7,–,–,–,111 % of control
B8,–,–,–,112 % of control
B9,"142 relative, control = 100","233 relative, control = 100",1.63 ratio,–
B10,"92.5 relative, control = 100","121 relative, control = 100",1.31 ratio,–
B11,–,–,–,104 % of control
B12,"92.8 relative, control = 100","147 relative, control = 100",1.59 ratio,–
B13,"83.3 relative, control = 100","103 relative, control = 100",1.24 ratio,–
B14,"70.5 relative, control = 100","124 relative, control = 100",1.77 ratio,–
B15,–,–,–,112 % of control
B16,"108 relative, control = 100","147 relative, control = 100",1.37 ratio,–
B17,–,–,–,112 % of control

Binder,He/Con_2b (IIb binding) [1],He/Con_3a (IIIa binding) [2],He_3a/2b (IIIa/IIb) [3],He/Con_1a [4]
B18,–,–,–,106 % of control
B19,"95 relative, control = 100","125 relative, control = 100",1.32 ratio,–
B20,–,–,–,106 % of control
B21,"147 relative, control = 100","207 relative, control = 100",1.41 ratio,–
B22,–,–,–,112 % of control
B23,–,–,–,113 % of control
B24,"81.4 relative, control = 100","98.2 relative, control = 100",1.21 ratio,–
B25,"70.1 relative, control = 100","84.6 relative, control = 100",1.21 ratio,–
B26,–,–,–,105 % of control
B27,"67.1 relative, control = 100","103 relative, control = 100",1.53 ratio,–
B28,"12.5 relative, control = 100","31.7 relative, control = 100",2.53 ratio,–
B29,"87.1 relative, control = 100","111 relative, control = 100",1.27 ratio,–
B30,"83.8 relative, control = 100","105 relative, control = 100",1.26 ratio,–
B31,"76.1 relative, control = 100","104 relative, control = 100",1.37 ratio,–
B32,"81.8 relative, control = 100","103 relative, control = 100",1.26 ratio,–
B33,–,–,–,112 % of control
B34,"48.9 relative, control = 100","75.9 relative, control = 100",1.55 ratio,–
